Source: publication PMC11708034

Assays:
[1] = biological target: CDTb heptamer (Clostridioides difficile) (UniProt O32739); assay: cryo-EM structure
[2] = biological target: biotinylated CDTb oligomers (Clostridioides difficile) (UniProt O32739); assay: BLI; […]; 20 mM HEPES pH 8.0, 100 mM NaCl, […]; 5 min association, 10 min dissociation; […]
[3] = biological target: biotinylated CDTb oligomers (Clostridioides difficile) (UniProt O32739); assay: BLI; biotinylated CDTb oligomers saturated on streptavidin biosensors (Octet Red 96e); CDTa 200 to 0.032 nM in solution; 20 mM HEPES pH 8.0, 100 mM NaCl, blocked with 0.01% Igepal CA-630 and 0.1% BSA; 5 min association, 10 min dissociation; kON from the slope of kobs against concentration, KD from the signal at equilibrium (sigmoidal dose-response fit)

Question: How did the stoichiometry N [1] turn out when “CDTb heptamer (from UniProt O32739 45-876) (complex)” was run?
Answer: Its stoichiometry N is 7.

B1: CDTa_(50-463) (domain or fragment)
chain: KAPIERPEDFLKDKEKAKEWERKEAERIEQKLERSEKEALESYKKDSVEISKYSQTRNYFYDYQIEANSREKEYKELRNAISKNKIDKPMYVYYFESPEKFAFNKVIRTENQNEISLEKFNEFKETIQNKLFKQDGFKDISLYEPGKGDEKPTPLLMHLKLPRNTGMLPYTNTNNVSTLIEQGYSIKIDKIVRIVIDGKHYIKAEASVVSSLDFKDDVSKGDSWGKANYNDWSNKLTPNELADVNDYMRGGYTAINNYLISNGPVNNPNPELDSKITNIENALKREPIPTNLTVYRRSGPQEFGLTLTSPEYDFNKLENIDAFKSKWEGQALSYPNFISTSIGSVNMSAFAKRKIVLRITIPKGSPGAYLSAIPGYAGEYEVLLNHGSKFKINKIDSYKDGTITKLIVDATLIP
Question: What does the source list for B1?
Answer: Kd [2]: 5.7 nM; kon [2]: 1.4e+06 M⁻¹ s⁻¹

B2: CDTa_(60-463) (domain or fragment)
chain: LKDKEKAKEWERKEAERIEQKLERSEKEALESYKKDSVEISKYSQTRNYFYDYQIEANSREKEYKELRNAISKNKIDKPMYVYYFESPEKFAFNKVIRTENQNEISLEKFNEFKETIQNKLFKQDGFKDISLYEPGKGDEKPTPLLMHLKLPRNTGMLPYTNTNNVSTLIEQGYSIKIDKIVRIVIDGKHYIKAEASVVSSLDFKDDVSKGDSWGKANYNDWSNKLTPNELADVNDYMRGGYTAINNYLISNGPVNNPNPELDSKITNIENALKREPIPTNLTVYRRSGPQEFGLTLTSPEYDFNKLENIDAFKSKWEGQALSYPNFISTSIGSVNMSAFAKRKIVLRITIPKGSPGAYLSAIPGYAGEYEVLLNHGSKFKINKIDSYKDGTITKLIVDATLIP
Question: For B2, which Kd [3] is on record?
Answer: The Kd was 9.5 nM.

Question: And the kon [3]?
Answer: The kon was 800000 M⁻¹ s⁻¹.

B3: CDTa_(67-463) (domain or fragment)
chain: KEWERKEAERIEQKLERSEKEALESYKKDSVEISKYSQTRNYFYDYQIEANSREKEYKELRNAISKNKIDKPMYVYYFESPEKFAFNKVIRTENQNEISLEKFNEFKETIQNKLFKQDGFKDISLYEPGKGDEKPTPLLMHLKLPRNTGMLPYTNTNNVSTLIEQGYSIKIDKIVRIVIDGKHYIKAEASVVSSLDFKDDVSKGDSWGKANYNDWSNKLTPNELADVNDYMRGGYTAINNYLISNGPVNNPNPELDSKITNIENALKREPIPTNLTVYRRSGPQEFGLTLTSPEYDFNKLENIDAFKSKWEGQALSYPNFISTSIGSVNMSAFAKRKIVLRITIPKGSPGAYLSAIPGYAGEYEVLLNHGSKFKINKIDSYKDGTITKLIVDATLIP
Question: B3 was tested. Which Kd [2] did it give?
Answer: The Kd was 18.5 nM.

Question: And the kon [2]?
Answer: The kon was 400000 M⁻¹ s⁻¹.

B4: CDTa_(40-463) (domain or fragment)
chain: YSEKVCNTTYKAPIERPEDFLKDKEKAKEWERKEAERIEQKLERSEKEALESYKKDSVEISKYSQTRNYFYDYQIEANSREKEYKELRNAISKNKIDKPMYVYYFESPEKFAFNKVIRTENQNEISLEKFNEFKETIQNKLFKQDGFKDISLYEPGKGDEKPTPLLMHLKLPRNTGMLPYTNTNNVSTLIEQGYSIKIDKIVRIVIDGKHYIKAEASVVSSLDFKDDVSKGDSWGKANYNDWSNKLTPNELADVNDYMRGGYTAINNYLISNGPVNNPNPELDSKITNIENALKREPIPTNLTVYRRSGPQEFGLTLTSPEYDFNKLENIDAFKSKWEGQALSYPNFISTSIGSVNMSAFAKRKIVLRITIPKGSPGAYLSAIPGYAGEYEVLLNHGSKFKINKIDSYKDGTITKLIVDATLIP
Question: For B4, which Kd [3] is on record?
Answer: Its Kd is 9 nM.

Question: What about the kon [3] of the same molecule?
Answer: Its kon is 1.2e+06 M⁻¹ s⁻¹.
